Experimental data published in patent US12123876B2, “Antibody binding to HEG1 and use of the antibody for detection and treatment of mesothelioma” (Kanagawa Prefectural Hospital Organization, priority 2016, dated 2024).

Test system: mesothelioma
Experiment: Immunohistological staining of mesothelioma tissue sections
Parameters: species or system human
From the text: For the detection of mesothelioma according to the present invention, the antibody according to the present invention or an antigen-binding fragment thereof is contacted with a sample. In the case that a sample separated from a living body such as cells, a tissue, or a tissue section is used, antibody reaction can be detected by using a method well known to those skilled in the art (e.g., an immunohistological staining method). If antibody reaction is then observed (e.g., in the case of a positive result), the subject from whom the sample is derived is likely to be affected with mesothelioma. Whether a result for antibody reaction is positive can be determined in accordance with an Allred Score method (see Allred D C et al., Mod Pathol, 11: 155-168, 1998). In the Allred Score method, for example, a total score is calculated from the following equation: Total score (TS)=Proportion score (PS)+Intensity score (IS) If the total score is 3 or more, then it can be determined that the result for reaction is positive. PS and IS can be determined from the following score tables. Score Tables for Allred Score Method Proportion Score, PS • 0: no staining • 1: a proportion of staining of less than 1% • 2: a proportion of staining of 1% or more and less than 10% • 3: a proportion of staining of 10% or more and less than ⅓ • 4: a proportion of staining of ⅓ or more and less than ⅔ • 5: a proportion of staining of ⅔ or more Intensity score, IS • 0: negative • 1: weak staining • 2: intermediate staining • 3: strong staining
AMeX-fixed cell precipitates or formalin-fixed tissues were paraffin-embedded to prepare thin sections. Each of the sections was fixed to a microscope slide, and subjected to deparaffinization and dehydration with xylene and ethanol, followed by activation of an antigen under different conditions. Each section was treated with 3% hydrogen peroxide for 5 minutes to deactivate endogenous peroxidase, and then washed with PBS and blocked with 0.5% casein for 10 minutes. After 100 μL of a solution containing a primary antibody was added to each section and treated at room temperature for 2 hours, the section was washed with PBS and allowed to develop color by using a Histofine Simple Stain MAX-PO (Multi) ([…] BIOSCIENCE INC.), Ventana ultraView DAB universal kit (Roche Diagnostics K. K.), or the EnVision+kits. Each section was stained with hematoxylin and then dehydrated, and encapsulated with Malinol (MUTO PURE CHEMICALS CO., LTD.) to observe under a microscope. The conditions for activation of an antigen were as follows: at 98° C. for 40 minutes for calretinin, mesothelin, and the SKM9-2 antigen; and at 95° C. for 64 minutes for cytokeratin 5/6 (CK5/6), podoplanin, and Wilms' tumor gene product 1 (WT-1). The following activation solutions were used: 10 mM Tris buffer (pH 9.0) containing 1 mM ethylenediamine tetraacetate (EDTA) for calretinin, CK5/6, and podoplanin; and 10 mM citrate buffer (pH 6.0) containing 0.1% TWEEN® 20 (polyethylene glycol sorbitan monolaurate, polyoxyethylenesorbitan monolaurate) for WT-1, mesothelin, and the SKM9-2 antigen. The following primary antibodies were used: a rabbit anti-calretinin polyclonal antibody (PAD:DC8) (Life Technologies Japan Ltd., Tokyo, Japan) for calretinin; a mouse anti-cytokeratin 5,6 monoclonal antibody (D5/16B4) ([…] BIOSCIENCE INC.) for CK5/6; a mouse anti-human mesothelin monoclonal antibody (5B2) (Leica Microsystems, Inc., Bannockburn, IL) for mesothelin; a mouse anti-podoplanin monoclonal antibody (D2-40) (Roche Diagnostics K. K.) for podoplanin; and a mouse anti-human WT-1 monoclonal antibody (6F-H2) (Roche Diagnostics K. K.) for WT-1.
Hereinafter, cases that the fraction of cells with scores of 1 or more determined in accordance with the Allred Score method was 10% or more in the cell were determined as positive.

B1: SKM9-2 antibody: mouse monoclonal IgG1 kappa antibody binding glycosylated HEG1; heavy chain SEQ ID NO: 2, light chain SEQ ID NO: 4 (antibody, listed as Mus musculus)
heavy: MGWSSIILFLVATTTGVHSQVQLQQPGAELVRPGASVKLSCKASGFSFTTYWITWVKQRPGQGLEWIGMIHPSDSETRLSQTFKDKATLTVDKSSNTAYMQFSSPTSEDSAVYYCVRDFDVWGAGTTVTVSSAKTTPPSVYPLAPGSAAQTNSMVTLGCLVKGYFPEPVTVTWNSGSLSSGVHTFPAVLQSDLYTLSSSVTVPSSTWPSETVTCNVAHPASSTKVDKKIVPRDCGCKPCICTVPEVSSVFIFPPKPKDVLTITLTPKVTCVVVDISKDDPEVQFSWFVDDVEVHTAQTQPREEQFNSTFRSVSELPIMHQDWLNGKEFKCRVNSAAFPAPIEKTISKTKGRPKAPQVYTIPPPKEQMAKDKVSLTCMITDFFPEDITVEWQWNGQPAENYKNTQPIMDTDGSYFVYSKLNVQKSNWEAGNTFTCSVLHEGLHNHHTEKSLSHSPGK
light: MKLPVRLLVLMFWIPASISDVLMTQTPLSLPVSLGDQASISCRSSQNIVHNNGNTYLGWYLQKPGQSPKLLIFKVSNRFSGVPDRFSGSGSGTDFTLKISRVEAEDLGVYYCFQGSHIPRTFGGGTRLEIKRADAAPTVSIFPPSSEQLTSGGASVVCFLNNFYPKDINVKWKIDGSERQNGVLNSWTDQDSKDSTYSMSSTLTLTKDEYERHNSYTCEATHKTSTSPIVKSFNRNEC
WDPM
  Staining of well-differentiated papillary mesothelioma (WDPM): one in one case
All mesothelioma types
  Sensitivity (%): 91.3%
Biphasic mesothelioma
  Detection of mesothelioma, Biphasic (positive cases/cases): 12/13
Desmoplastic mesothelioma
  Detection of mesothelioma, Desmoplastic (positive cases/cases): 3/4
Epithelial mesothelioma and sarcomatoid mesothelioma
  Staining of mesothelioma, representative images: successfully stained
Epithelial mesothelioma, positive = fraction of cells with Allred score 1 or more is 10% or more
  Detection of mesothelioma, Epithelial (positive cases/cases): 62/66
Sarcomatoid mesothelioma
  Detection of mesothelioma, Sarcomatoid (positive cases/cases): 7/9
